Tests used:
[1] = system: C.PvuII; test: EMSA
[2] = system: C.PvuII; test: competition

| Substance | K half [1] [nM] | binding signal (% loss of shifted WWWW band) [2] |
| --- | --- | --- |
| WWWW C-box 126-mer (symmetrized, spacer TGTA) | 200 | – |
| WWRR C-box 126-mer (OL intact) | – | 95 |
